From patent publication US20210095036A1 (University of Pennsylvania, published 2021)

Columns and labels:
[1] = molecular target: T1, GFRα4 isoform a (GFRα4a), Fc fusion with 6 His (human); experiment: phage ELISA, immobilized GFRα4a; first token of the cell (GFRα4b: NT)
T1 construct: the entry holds the whole fusion; also called GFR4α4a; immobilized GFRα4 isoform a
T1 chain: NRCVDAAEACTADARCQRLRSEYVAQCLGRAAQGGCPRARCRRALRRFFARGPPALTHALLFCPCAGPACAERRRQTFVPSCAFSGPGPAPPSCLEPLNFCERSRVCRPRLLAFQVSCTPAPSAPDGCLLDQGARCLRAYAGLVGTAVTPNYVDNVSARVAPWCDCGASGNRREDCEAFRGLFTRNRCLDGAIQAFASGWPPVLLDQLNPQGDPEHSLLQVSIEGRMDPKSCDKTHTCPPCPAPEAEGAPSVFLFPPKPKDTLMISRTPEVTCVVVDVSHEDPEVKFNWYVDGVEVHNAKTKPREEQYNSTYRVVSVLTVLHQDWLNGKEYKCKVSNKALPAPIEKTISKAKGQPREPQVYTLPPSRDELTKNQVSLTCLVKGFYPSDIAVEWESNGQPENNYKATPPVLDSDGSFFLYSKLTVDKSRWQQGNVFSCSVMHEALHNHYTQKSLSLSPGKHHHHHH
Excerpt: (§1) To perform these ELISAs, the GFRα4a isoform comprising a portion of GFRα4a (Asn24 -Ser245, UniProt accession #Q9GZZ7-2) was used, followed by a Factor Xa cleavage site/linker, a portion of optimized IgG1 Fc domain (Pro100-Lys330), and 6 His residues for purification. The GFRα4b isoform comprised a portion of GFRα4b (Asn24-Va1274, UniProt #Q9GZZ7-1), followed by a TEV cleavage site linker, and a portion of human IgG1 Fc domain (Asp104-Lys330).

[2] = molecular target: T1, GFRα4 isoform a (GFRα4a), Fc fusion …; experiment: phage ELISA, immobilized GFRα4a; first token of the cell (W weak binding)
Excerpt: as §1

[3] = molecular target: T2, GFRα4 isoform b (GFRα4b), Fc fusion (human); experiment: phage ELISA, immobilized GFRα4b; second token of the cell
T2 construct: the entry holds the whole fusion; also called GFR4α4b; GFRα4-Fc
Excerpt: as §1
Target sequence in this assay (chain, as listed by the source limits assumed): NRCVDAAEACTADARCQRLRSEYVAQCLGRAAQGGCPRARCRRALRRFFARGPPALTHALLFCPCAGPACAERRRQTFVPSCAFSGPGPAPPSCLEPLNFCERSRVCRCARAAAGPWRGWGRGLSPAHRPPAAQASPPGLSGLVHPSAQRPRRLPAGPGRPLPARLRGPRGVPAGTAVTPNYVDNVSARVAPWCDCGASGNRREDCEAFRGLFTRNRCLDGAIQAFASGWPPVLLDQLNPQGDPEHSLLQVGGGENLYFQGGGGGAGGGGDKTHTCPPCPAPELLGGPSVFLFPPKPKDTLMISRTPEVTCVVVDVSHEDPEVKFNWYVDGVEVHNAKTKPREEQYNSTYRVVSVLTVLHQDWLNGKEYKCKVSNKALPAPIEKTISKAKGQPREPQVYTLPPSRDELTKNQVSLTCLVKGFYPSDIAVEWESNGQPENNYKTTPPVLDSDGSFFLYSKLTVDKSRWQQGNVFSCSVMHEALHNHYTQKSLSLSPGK

[4] = molecular target: T1, GFRα4 isoform a (GFRα4a), Fc fusion …; experiment: phage ELISA, immobilized GFRα4a; first token of the cell
Excerpt: as §1

[5] = molecular target: T3, human GFRα4 isoform a (GFRα4a) on transduced cells (human, UniProt Q9GZZ7-2 21-248); experiment: flow cytometry and sorting of Nalm6 cells transduced with human GFRα4a-T2A-GFP
T3 construct: whole, on cells; also called Nalm6 cells expressing the GFRα4 isoform a
T3 sequence (looked up): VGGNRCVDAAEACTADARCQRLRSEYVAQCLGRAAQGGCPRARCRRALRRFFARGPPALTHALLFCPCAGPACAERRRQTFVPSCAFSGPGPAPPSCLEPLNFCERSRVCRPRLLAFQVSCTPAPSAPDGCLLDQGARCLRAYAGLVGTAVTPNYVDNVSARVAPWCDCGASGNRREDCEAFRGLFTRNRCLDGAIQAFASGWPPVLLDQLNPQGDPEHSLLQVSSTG
Experimental: Cytotoxicity of target cells by GFRα4-directed CAR-T cells was evaluated using a 51Cr release-assay. Target cells comprised either Nalm6 cells (a CD19-expressing B-cell precursor leukemia cell line (ATCC® CRL-3273TM)), Nalm6 cells expressing the GFRα4 isoform a (GFRα4a) or isoform b (GFRα4b), or TT cells (a human medullary thyroid cancer cell line (ATCC® CRL-1803TM)). Nalm6 cells expressing GFRα4 proteins were produced by transduction with lentiviral vectors encoding human GFRα4a-T2A-GFP or human GFRα4b-T2A-GFP (Milone et al. (2009) Molecular Therapy., 17: 1453-1464). […] P4-10 antibody comprised a full-length rabbit IgG containing the P4-10 rabbit variable regions and was a gift of Novartis Pharmaceuticals.

[6] = molecular target: T2, GFRα4 isoform b (GFRα4b), Fc fusion; experiment: phage ELISA, immobilized GFRα4b against GFRα4a
Excerpt: as §1
(§2) Binding of the positive scFvs from this experiment were also screened for binding to GFRα4b (FIG. 7). […] As observed in previous ELISAs of this type with the original rabbit P4-10 expressed as an antibody fragment on phage, reactivity always appears greater against the GFRα4b isoform.

[7] = molecular target: T1, GFRα4 isoform a (GFRα4a), Fc fusion …; experiment: phage ELISA, immobilized GFRα4a (FIG. 6)
Excerpt: as §1, §2

binding result [1] | Binder | other results
no binding | 15.H1m1.L1 (scFv, pIII not in the entry; order Vλ-linker-VH; also called scFv 15) scFv: QLVLTQSPSASASLGASVKLTCTLSSAHKTYTIAWHQQQPEKGPRYLMKVKSDGSYSKGDGIPDRFSGSSSGAERYLTISSLQSEDEADYYCGADDNGGYVFGGGTKLTVLGGGSSRSSSSGGGGSGGGGQQSVKESGPGLVKPSETLSLTCAVSGFSLSRHALTWVRQPPGKGLEWIGAIDNAGTTYYASWAKSRVTISRNTDLHTVSLKLSSVTAADTAVYFCARVFYDINSGYYLDGMDLWGPGTLVTVSS | –
no binding | 7.H2m1.L2 (scFv, pIII not in the entry; order Vλ-linker-VH; The printed entry has an E before QSVKE of the VH; also called scFv 7) scFv: QSVLTQPPSASGTPGQRVTISCSGSSAHKTYTVNWYQQLPGTAPKLLIYVKSDGSYQRPSGVPDRFSGSKSGTSASLAISGLQSEDEADYYCGADDNGGYVFGGGTKLTVLGGGSSRSSSSGGGGSGGGGEQSVKESGGGLVQPGGSLRLSCAASGFTLSRHALTWVRQAPGKGLEWIGAIDNAGTTYYASWAKSRFTISRNTDLHTVYLQMNSLRAEDTAVYFCARVFYDINSGYYLDGMDLWGPGTLVTVSS | –
no binding | 3.H1m1.L3 (scFv, pIII not in the entry; order Vλ-linker-VH; also called scFv 3; H1m.L3) scFv: QSALTQPASVSGSPGQSITISCTGTSAHKTYTVSWYQQHPGKAPKLMIYVKSDGSYNRPSGVSNRFSGSKSGNTASLTISGLQAEDEADYYCGADDNGGYVFGGGTKLTVLGGGSSRSSSSGGGGSGGGGQQSVKESGPGLVKPSETLSLTCAVSGFSLSRHALTWVRQPPGKGLEWIGAIDNAGTTYYASWAKSRVTISRNTDLHTVSLKLSSVTAADTAVYFCARVFYDINSGYYLDGMDLWGPGTLVTVSS | –
no binding | 11.H2m1.L1 (scFv, pIII not in the entry; order Vλ-linker-VH; The printed entry has an E before QSVKE of the VH; also called scFv 11) scFv: QLVLTQSPSASASLGASVKLTCTLSSAHKTYTIAWHQQQPEKGPRYLMKVKSDGSYSKGDGIPDRFSGSSSGAERYLTISSLQSEDEADYYCGADDNGGYVFGGGTKLTVLGGGSSRSSSSGGGGSGGGGEQSVKESGGGLVQPGGSLRLSCAASGFTLSRHALTWVRQAPGKGLEWIGAIDNAGTTYYASWAKSRFTISRNTDLHTVYLQMNSLRAEDTAVYFCARVFYDINSGYYLDGMDLWGPGTLVTVSS | –
no binding | 9.H2.L1 (scFv, pIII not in the entry; order Vλ-linker-VH; also called scFv 9) scFv: QLVLTQSPSASASLGASVKLTCTLSSAHKTYTIAWHQQQPEKGPRYLMKVKSDGSYSKGDGIPDRFSGSSSGAERYLTISSLQSEDEADYYCGADDNGGYVFGGGTKLTVLGGGSSRSSSSGGGGSGGGGEVQLVESGGGLVQPGGSLRLSCAASGFTFSRHALTWVRQAPGKGLEWVSAIDNAGTTYYASWAKSRFTISRDNAKNSLYLQMNSLRAEDTAVYYCARVFYDINSGYYLDGMDLWGPGTLVTVSS | –

The remaining lines, values behind:

Binder | binding result [1] | other results
1.H1.L3 (scFv, pIII not in the entry; order Vλ-linker-VH; also called scFv 1) scFv: QSALTQPASVSGSPGQSITISCTGTSAHKTYTVSWYQQHPGKAPKLMIYVKSDGSYNRPSGVSNRFSGSKSGNTASLTISGLQAEDEADYYCGADDNGGYVFGGGTKLTVLGGGSSRSSSSGGGGSGGGGQVQLQESGPGLVKPSETLSLTCAVSGYSISRHALTWIRQPPGKGLEWIGAIDNAGTTYYASWAKSRVTISVDTSKNQFSLKLSSVTAADTAVYYCARVFYDINSGYYLDGMDLWGPGTLVTVSS | no binding | –
13.H1.L1 (scFv, pIII not in the entry; order Vλ-linker-VH; also called scFv 13) scFv: QLVLTQSPSASASLGASVKLTCTLSSAHKTYTIAWHQQQPEKGPRYLMKVKSDGSYSKGDGIPDRFSGSSSGAERYLTISSLQSEDEADYYCGADDNGGYVFGGGTKLTVLGGGSSRSSSSGGGGSGGGGQVQLQESGPGLVKPSETLSLTCAVSGYSISRHALTWIRQPPGKGLEWIGAIDNAGTTYYASWAKSRVTISVDTSKNQFSLKLSSVTAADTAVYYCARVFYDINSGYYLDGMDLWGPGTLVTVSS | no binding | –
5.H2.L2 (scFv, pIII not in the entry; order Vλ-linker-VH; also called scFv 5) scFv: QSVLTQPPSASGTPGQRVTISCSGSSAHKTYTVNWYQQLPGTAPKLLIYVKSDGSYQRPSGVPDRFSGSKSGTSASLAISGLQSEDEADYYCGADDNGGYVFGGGTKLTVLGGGSSRSSSSGGGGSGGGGEVQLVESGGGLVQPGGSLRLSCAASGFTFSRHALTWVRQAPGKGLEWVSAIDNAGTTYYASWAKSRFTISRDNAKNSLYLQMNSLRAEDTAVYYCARVFYDINSGYYLDGMDLWGPGTLVTVSS | no binding | –
23.H1.L2m1 (scFv, pIII not in the entry; order Vλ-linker-VH; also called scFv 23) scFv: QFVLTQPPSASGTPGQRVTISCTLSSAHKTYTIDWYQQLPGTAPKLLIYVKSDGSYTKGTGVPDRFSGSSSGADRYLAISGLQSEDEADYYCGADDNGGYVFGGGTQLTVTGGGSSRSSSSGGGGSGGGGQVQLQESGPGLVKPSETLSLTCAVSGYSISRHALTWIRQPPGKGLEWIGAIDNAGTTYYASWAKSRVTISVDTSKNQFSLKLSSVTAADTAVYYCARVFYDINSGYYLDGMDLWGPGTLVTVSS | – | binding result [2]: binds; binding result [3]: binds
16.H1m1.L1m1 (scFv, pIII not in the entry; order Vλ-linker-VH; also called scFv 16) scFv: QFVLTQSPSASASLGASVKLTCTLSSAHKTYTIDWYQQQPEKGPRYLMQVKSDGSYTKGTGVPDRFSGSSSGADRYLTISSLQSEDEADYYCGADDNGGYVFGGGTQLTVTGGGSSRSSSSGGGGSGGGGQQSVKESGPGLVKPSETLSLTCAVSGFSLSRHALTWVRQPPGKGLEWIGAIDNAGTTYYASWAKSRVTISRNTDLHTVSLKLSSVTAADTAVYFCARVFYDINSGYYLDGMDLWGPGTLVTVSS | – | binding result [4]: binds; binding result [3]: binds
P4-10 antibody (full-length rabbit IgG containing the P4-10 rabbit variable regions) (antibody, V domains shown, Full-length rabbit IgG, lambda light chain; also called anti-GFRα4 P4-10 antibody; rabbit P4-10) VH: QSVKESEGGLFKPTDTLTLTCTVSGFSLSRHALTWVRQAPGNGLEWIGAIDNAGTTYYASWAKSRSTITRNTDLHTVTLKMTSLTASDTATYFCARVFYDINSGYYLDGMDLWGPGTLVTVSS VL: QFVLTQSPSVSAALGASAKLTCTLSSAHKTYTIDWYQQQQGEAPRYLMQVKSDGSYTKGTGVPDRFSGSSSGADRYLIIPSVQADDEAGYVCGADDNGGYVFGGGTQLTVT | – | binding result [5]: binds
0.410HC.410LC (scFv, pIII not in the entry; order Vλ-linker-VH; positive control; also called original rabbit P4-10 scFv; scFv 0) scFv: QFVLTQSPSVSAALGASAKLTCTLSSAHKTYTIDWYQQQQGEAPRYLMQVKSDGSYTKGTGVPDRFSGSSSGADRYLIIPSVQADDEAGYVCGADDNGGYVFGGGTQLTVTGGGSSRSSSSGGGGSGGGGQSVKESEGGLFKPTDTLTLTCTVSGFSLSRHALTWVRQAPGNGLEWIGAIDNAGTTYYASWAKSRSTITRNTDLHTVTLKMTSLTASDTATYFCARVFYDINSGYYLDGMDLWGPGTLVTVSS | – | binding result [6]: binds; binding result [7]: binds
